The target of this assay is T1, Mouse BAI3 N-terminal domain (NTD) encompassing residues 26-290 (mouse, UniProt Q80ZF8 26-290).
T1 construct: The vector encodes a 3C site, an Fc-tag and a C-terminal His tag after the NTD; the His tag lies after the 3C site and so was probably removed with the Fc; also called BAI3 NTD; BAI3 CUB domain; source: HEK293S GnTI- cells, BacMam virus (pVLAD8L), secreted, purified (Ni2+-NTA, 3C cleavage, SEC); not shown: Fc, C-terminal, cleaved
T1 sequence (looked up): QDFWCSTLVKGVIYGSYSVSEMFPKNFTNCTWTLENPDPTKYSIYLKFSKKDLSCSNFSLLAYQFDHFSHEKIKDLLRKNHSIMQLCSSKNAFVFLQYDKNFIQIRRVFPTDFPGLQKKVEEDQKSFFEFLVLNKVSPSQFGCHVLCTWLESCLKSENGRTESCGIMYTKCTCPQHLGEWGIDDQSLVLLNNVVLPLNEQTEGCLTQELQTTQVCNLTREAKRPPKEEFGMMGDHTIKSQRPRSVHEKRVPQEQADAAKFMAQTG
Briefly: SEC; purified proteins mixed, size-exclusion chromatography and Coomassie-stained SDS-PAGE of fractions; 1x HBS (10 mM HEPES pH 7.2, 150 mM NaCl) with 2 mM CaCl2. Conditions: both partners purified. Background: SEC sorts molecules by how far they enter the pores of the column.

B1: C1ql3 globular C1q-like domain (residues 122-255) (domain or fragment, mouse, UniProt Q9ESN4 122-255, looked up)
chain: STVPKIAFYAGLKRQHEGYEVLKFDDVVTNLGNHYDPTTGKFTCSIPGIYFFTYHVLMRGGDGTSMWADLCKNNQVRASAIAQDADQNYDYASNSVVLHLEPGDEVYIKLDGGKAHGGNNNKYSTFSGFIIYAD
notes: C1q-like 3 protein (C1ql3), mouse, C1q-like domain, residues 122-255; buffer contained 2 mM CaCl2; The tag is surmised from the Ni-NTA step; also called C1q-like domain trimer of C1ql3; C1ql3 C1q-like domain; source: Expi293F GnTI- cells, transfected (pEG BacMam), purified (Ni2+-NTA, SEC)
Turning to B1, the binding result was “binds”.

The record behind these values is PMC12048575, “Structure of the complex of C1q-like 3 protein with adhesion-GPCR BAI3” (Communications Biology, 2025).
